From patent publication US12281147
Blank lines part the entries; values can stand above or below the substance they belong to.

Legend:
[1] = molecular target: wild-type human IL-21R (human) (UniProt Q9HBE5); test: AlphaSeq yeast mating assay, unbuffered media
[2] = molecular target: wild-type human IL-21R (human) (UniProt Q9HBE5); test: AlphaSeq yeast mating assay, pH 6 media
[3] = molecular target: wild-type human IL-21R (human) (UniProt Q9HBE5); test: AlphaSeq yeast mating assay, pH 7 media
[4] = molecular target: wild-type human IL-21R (human) (UniProt Q9HBE5); test: AlphaSeq yeast mating assay, pH 5 media
[5] = molecular target: human interleukin 21 receptor (IL-21R) (human) (UniProt Q9HBE5); test: AlphaSeq yeast mating, pH 7 media
[6] = molecular target: human interleukin 21 receptor (IL-21R) (human) (UniProt Q9HBE5); test: AlphaSeq yeast mating, pH 6 media
[7] = molecular target: human interleukin 21 receptor (IL-21R) (human) (UniProt Q9HBE5); test: AlphaSeq yeast mating, pH 5 media
[8] = molecular target: human interleukin 21 receptor (IL-21R) (human) (UniProt Q9HBE5); test: AlphaSeq yeast mating, unbuffered media
[9] = molecular target: human interleukin 21 receptor (IL-21R) (human) (UniProt Q9HBE5); test: AlphaSeq yeast mating assay, pH 5 media
[10] = molecular target: human interleukin 21 receptor (IL-21R) (human) (UniProt Q9HBE5); test: AlphaSeq yeast mating assay, pH 7 media
[11] = molecular target: human interleukin 21 receptor (IL-21R) (human) (UniProt Q9HBE5); test: AlphaSeq yeast mating assay, unbuffered media
[12] = molecular target: mouse IL-21R, His-tagged (BLI antigen) (mouse) (UniProt Q9JHX3); test: BLI
[13] = molecular target: recombinant human IL-21R His tag (Acro Biosystems) (human) (UniProt Q9HBE5); test: BLI

- Kd [1]: 3300 nM
- Kd [2]: 21 nM
- Kd [3]: 210 nM
Substance: IL-21_A63T (from UniProt Q9HBE4 32-152) (ligand)

- Kd [1]: 3400 nM
- Kd [2]: 11 nM
- Kd [3]: 21 nM
Substance: IL-21_E72H (from UniProt Q9HBE4 32-152) (ligand)

- Kd [5]: 340 nM
- Kd [6]: 140 nM
- Kd [7]: 530 nM
Substance: IL-21_E72S (from UniProt Q9HBE4 32-152) (ligand)

- Kd [4]: 99000 nM
- Kd [2]: 3100 nM
- Kd [3]: 370 nM
Substance: IL-21_H118K (from UniProt Q9HBE4 32-152) (ligand)

- Kd [5]: 140 nM
- Kd [6]: 35 nM
- Kd [7]: 250 nM
Substance: IL-21_I37Q (from UniProt Q9HBE4 32-152) (ligand)

- Kd [5]: 46 nM
- Kd [6]: 25 nM
- Kd [7]: 47 nM
Substance: IL-21_L120K (from UniProt Q9HBE4 32-152) (ligand)

- Kd [5]: 47 nM
- Kd [6]: 24 nM
- Kd [7]: 160 nM
- Kd [8]: 8500 nM
Substance: IL-21_N51P (from UniProt Q9HBE4 32-152) (ligand)

- Kd [1]: 4500 nM
- Kd [3]: 46 nM
Substance: IL-21_P62T (from UniProt Q9HBE4 32-152) (ligand)

- Kd [5]: 94 nM
- Kd [6]: 50 nM
- Kd [8]: 14000 nM
Substance: IL-21_Q150R (from UniProt Q9HBE4 32-152) (ligand)

- Kd [5]: 200 nM
- Kd [8]: 10000 nM
Substance: IL-21_R34H (from UniProt Q9HBE4 32-152) (ligand)

- Kd [1]: 4400 nM
- Kd [4]: 140 nM
- Kd [3]: 160 nM
Substance: IL-21_S74A (from UniProt Q9HBE4 32-152) (ligand)

- Kd [4]: 110 nM
- Kd [3]: 52 nM
Substance: IL-21_S86I (from UniProt Q9HBE4 32-152) (ligand)

- Kd [5]: 170 nM
- Kd [6]: 360 nM
- Kd [7]: 3500 nM
- Kd [8]: 26000 nM
Substance: IL-21_W73A (from UniProt Q9HBE4 32-152) (ligand)

- Kd [5]: 120 nM
- Kd [6]: 88 nM
- Kd [8]: 15000 nM
Substance: IL-21_W73Q (from UniProt Q9HBE4 32-152) (ligand)

- Kd [5]: 89 nM
- Kd [6]: 390 nM
- Kd [7]: 55000 nM
- Kd [8]: 63000 nM
Substance: IL-21_Y52Q (from UniProt Q9HBE4 32-152) (ligand)

- Kd [12]: 12.3 nM
Substance: IL-21_human_E72L Fc fusion protein (from UniProt Q9HBE4 30-162)

- Kd [12]: 159 nM
Substance: IL-21_human_I37G Fc fusion protein (from UniProt Q9HBE4 30-162)

- Kd [12]: 35.1 nM
Substance: IL-21_human_I37R Fc fusion protein (from UniProt Q9HBE4 30-162)

- Kd [12]: 5.27 nM
- Kd [13]: 3.02 nM
Substance: IL-21_human_I37V Fc fusion protein (from UniProt Q9HBE4 30-162)

- Kd [12]: 6.46 nM
- Kd [13]: 2.45 nM
Substance: IL-21_human_I148S Fc fusion protein (from UniProt Q9HBE4 30-162)

- Kd [12]: 24 nM
- Kd [13]: 5.78 nM
Substance: IL-21_human_K106S Fc fusion protein (from UniProt Q9HBE4 30-162)

- Kd [12]: 246 nM
- Kd [13]: 89.6 nM
Substance: IL-21_human_R38Q Fc fusion protein (from UniProt Q9HBE4 30-162)

More lines, now with the values behind:

Substance: IL-21_A87N (from UniProt Q9HBE4 32-152) (ligand)
- Kd [4]: 110 nM
- Kd [2]: 25 nM
- Kd [3]: 120 nM

Substance: IL-21_D33A (from UniProt Q9HBE4 32-152) (ligand)
- Kd [5]: 83 nM

Substance: IL-21_D33N (from UniProt Q9HBE4 32-152) (ligand)
- Kd [5]: 45 nM
- Kd [6]: 27 nM
- Kd [7]: 120 nM
- Kd [8]: 14000 nM

Substance: IL-21_D33S (from UniProt Q9HBE4 32-152) (ligand)
- Kd [5]: 27 nM
- Kd [7]: 82 nM

Substance: IL-21_E93G (from UniProt Q9HBE4 32-152) (ligand)
- Kd [1]: 7200 nM
- Kd [2]: 37 nM
- Kd [3]: 150 nM

Substance: IL-21_F60I (from UniProt Q9HBE4 32-152) (ligand)
- Kd [1]: 7700 nM
- Kd [4]: 340 nM
- Kd [3]: 190 nM

Substance: IL-21_F60R (from UniProt Q9HBE4 32-152) (ligand)
- Kd [4]: 76 nM
- Kd [2]: 26 nM
- Kd [3]: 27 nM

Substance: IL-21_F76M (from UniProt Q9HBE4 32-152) (ligand)
- Kd [4]: 77 nM
- Kd [2]: 21 nM
- Kd [3]: 75 nM

Substance: IL-21_H118R (from UniProt Q9HBE4 32-152) (ligand)
- Kd [5]: 260 nM
- Kd [6]: 950 nM
- Kd [7]: 20000 nM
- Kd [8]: 11000 nM

Substance: IL-21_I95T (from UniProt Q9HBE4 32-152) (ligand)
- Kd [5]: 190 nM
- Kd [6]: 550 nM
- Kd [7]: 9800 nM
- Kd [8]: 34000 nM

Substance: IL-21_I96V (from UniProt Q9HBE4 32-152) (ligand)
- Kd [1]: 3000 nM
- Kd [4]: 190 nM
- Kd [3]: 62 nM

Substance: IL-21_K85S (from UniProt Q9HBE4 32-152) (ligand)
- Kd [9]: 150 nM

Substance: IL-21_K131V (from UniProt Q9HBE4 32-152) (ligand)
- Kd [9]: 26 nM

Substance: IL-21_L56M (from UniProt Q9HBE4 32-152) (ligand)
- Kd [1]: 6700 nM
- Kd [4]: 350 nM
- Kd [2]: 45 nM
- Kd [3]: 84 nM

Substance: IL-21_L61I (from UniProt Q9HBE4 32-152) (ligand)
- Kd [5]: 83 nM
- Kd [6]: 37 nM
- Kd [7]: 370 nM

Substance: IL-21_L120Y (from UniProt Q9HBE4 32-152) (ligand)
- Kd [10]: 58 nM

Substance: IL-21_N54H (from UniProt Q9HBE4 32-152) (ligand)
- Kd [4]: 77 nM
- Kd [2]: 20 nM
- Kd [3]: 27 nM

Substance: IL-21_N54P (from UniProt Q9HBE4 32-152) (ligand)
- Kd [1]: 5400 nM
- Kd [4]: 89 nM
- Kd [2]: 20 nM
- Kd [3]: 27 nM

Substance: IL-21_N88K (from UniProt Q9HBE4 32-152) (ligand)
- Kd [5]: 140 nM
- Kd [6]: 43 nM
- Kd [7]: 170 nM
- Kd [8]: 21000 nM

Substance: IL-21_N97G (from UniProt Q9HBE4 32-152) (ligand)
- Kd [1]: 7600 nM
- Kd [4]: 77 nM
- Kd [2]: 24 nM
- Kd [3]: 48 nM

Substance: IL-21_P62H (from UniProt Q9HBE4 32-152) (ligand)
- Kd [1]: 5100 nM
- Kd [4]: 160 nM
- Kd [2]: 21 nM
- Kd [3]: 110 nM

Substance: IL-21_P108L (from UniProt Q9HBE4 32-152) (ligand)
- Kd [1]: 8100 nM
- Kd [4]: 360 nM
- Kd [2]: 35 nM
- Kd [3]: 99 nM

Substance: IL-21_P133I (from UniProt Q9HBE4 32-152) (ligand)
- Kd [2]: 44 nM
- Kd [3]: 110 nM

Substance: IL-21_Q41S (from UniProt Q9HBE4 32-152) (ligand)
- Kd [1]: 3000 nM
- Kd [4]: 140 nM
- Kd [2]: 26 nM
- Kd [3]: 25 nM

Substance: IL-21_Q48G (from UniProt Q9HBE4 32-152) (ligand)
- Kd [1]: 3200 nM
- Kd [4]: 59 nM
- Kd [2]: 16 nM
- Kd [3]: 39 nM

Substance: IL-21_R34E (from UniProt Q9HBE4 32-152) (ligand)
- Kd [3]: 210 nM

Substance: IL-21_R34W (from UniProt Q9HBE4 32-152) (ligand)
- Kd [5]: 190 nM
- Kd [6]: 96 nM
- Kd [8]: 20000 nM

Substance: IL-21_S74N (from UniProt Q9HBE4 32-152) (ligand)
- Kd [5]: 410 nM
- Kd [7]: 48000 nM
- Kd [8]: 32000 nM

Substance: IL-21_S77K (from UniProt Q9HBE4 32-152) (ligand)
- Kd [5]: 170 nM
- Kd [7]: 190 nM
- Kd [8]: 14000 nM

Substance: IL-21_S99H (from UniProt Q9HBE4 32-152) (ligand)
- Kd [5]: 25 nM
- Kd [8]: 60000 nM

Substance: IL-21_S142D (from UniProt Q9HBE4 32-152) (ligand)
- Kd [11]: 450 nM

Substance: IL-21_T89L (from UniProt Q9HBE4 32-152) (ligand)
- Kd [5]: 140 nM
- Kd [6]: 110 nM
- Kd [7]: 1000 nM
- Kd [8]: 16000 nM

Substance: IL-21_V57R (from UniProt Q9HBE4 32-152) (ligand)
- Kd [5]: 50 nM
- Kd [6]: 16 nM
- Kd [7]: 50 nM
- Kd [8]: 14000 nM

Substance: IL-21_V98H (from UniProt Q9HBE4 32-152) (ligand)
- Kd [6]: 26 nM
- Kd [7]: 170 nM
- Kd [8]: 8800 nM

Substance: IL-21_W73L (from UniProt Q9HBE4 32-152) (ligand)
- Kd [6]: 200 nM
- Kd [7]: 5200 nM
- Kd [8]: 33000 nM

Substance: IL-21_human_D33T Fc fusion protein (from UniProt Q9HBE4 30-162)
- Kd [12]: 37.4 nM
- Kd [13]: 14.8 nM

Substance: IL-21_human_I43M Fc fusion protein (from UniProt Q9HBE4 30-162)
- Kd [12]: 9.04 nM
- Kd [13]: 7.02 nM

Substance: IL-21_human_I45A Fc fusion protein (from UniProt Q9HBE4 30-162)
- Kd [12]: 12.6 nM
- Kd [13]: 1.94 nM

Substance: IL-21_human_I45H Fc fusion protein (from UniProt Q9HBE4 30-162)
- Kd [12]: 124 nM
- Kd [13]: 29 nM

Substance: IL-21_human_I95H Fc fusion protein (from UniProt Q9HBE4 30-162)
- Kd [12]: 849 nM
- Kd [13]: 16 nM

Substance: IL-21_human_R38M Fc fusion protein (from UniProt Q9HBE4 30-162)
- Kd [12]: 189 nM
- Kd [13]: 87.9 nM

Substance: IL-21_human_R105K Fc fusion protein (from UniProt Q9HBE4 30-162)
- Kd [12]: 41.3 nM
- Kd [13]: 16.7 nM
